Measured values: paper PMC5353646, “Allosteric modulation of peroxisomal membrane protein recognition by farnesylation of the peroxisomal import receptor PEX19” (Nature Communications, 2017)
Blank lines part the entries; values can stand above or below the molecule they belong to. No end group written: not given here. *: point of attachment. FITC = O=C1OC2(c3ccc(O)cc3Oc3cc(O)ccc32)c2ccc(NC(=S)*)cc21; fluorescein = fluorescein label on the N-terminus

Columns and labels:
[1] = system: PEX19-deficient human fibroblasts (ΔPEX19 T); test: Functional complementation of PEX19-deficient fibroblasts (peroxisomal protein import); format: cell-based; settings: full-length PEX19 variants; 72 h after transfection; at least 100 cells in three independent transfections; series of Fig. 3c
Text: A bicistronic expression plasmid coding for eGFP-PTS1 and non-tagged PEX14 (pMF1220)[43] was kindly provided by Marc Fransen (Leuven, Belgium). pIRES2-HsPEX19-eGFP-PTS1 was constructed by replacing the open reading frame of PEX14 (BglII/SalI) with a DNA-cassette encoding the full-length open reading frame of human PEX19 as derived from BamHI/SalI digestion of pAH05 (ref. [44]). Single point mutations were introduced into the PEX19 sequence by Quickchange XL Site-directed Mutagenesis kit (Stratagene) using primer pairs (Supplementary Table 1). The bicistronic expression vectors coding for PEX19 variants and eGFP-PTS1 were transfected into the human cell-line ΔPEX19 T which was derived from PEX19-deficient Zellweger patient fibroblasts. ΔPEX19 T cells, characterized by a defect in peroxisome biogenesis were routinely authenticated by functional complementation assays as described below and checked for mycoplasma contamination using Venor GeM Advance Mycoplasm Detection Kit (Minerva Biolabs). The efficiency of transfection according to the Amaxa Cell Line Nucleofector Kit R protocol (Lonza Cologne AG) was always around 90%. After 72 h of transfection, cells were subjected to fluorescence and immunofluorescence microscopy using polyclonal antiserum against human PEX14 (ref. [45]) (1:400 diluted) or monoclonal antibodies against human PEX19 (BD Biosciences, MA5-17266 Thermo Scientific; 1:400 diluted). Statistical analysis was carried out from three independent transfections of each pIRES-PEX19-eGFP-PTS1 expression plasmid. Based on the appearance of eGFP-PTS1 fluorescence pattern, about 100 cells of each experiment were visually categorized into three classes, (i) full complementation of peroxisomal import as visualized by punctuate staining pattern, (ii) partial complementation as indicated by diffuse cytosolic staining with few dots, (iii) no complementation resulting in only cytosolic staining. All micrographs were recorded on a Zeiss Axioplan 2 microscope with a Zeiss Plan-Apochromat × 63/1.4 oil objective and an Axiocam MR digital camera, and were processed with AxioVision 4.6 software (Zeiss, Jena, Germany). The steady-state level of PEX19 expression was assessed by immunoblot analysis, using monoclonal mouse antibodies against HsPEX19 (BD Biosciences, MA5-17266; 1:1,000 diluted) (Supplementary Fig. 9).

[2] = system: peroxisome biogenesis in cells; settings: ref Sacksteder et al, Gould J Cell Biol 2000; cited from earlier work
Text: page 14: remnants (and this is also what can be seen in these figures). To improve clarity and avoid confusion, the authors should correct these mistakes. […] The sentence on page 9 now reads “Cells that are not complemented by functional PEX19 show a cytosolic mislocalization of the peroxisomal marker protein GFP-PTS1 and a diffuse background immunolabelling of the peroxisomal membrane protein PEX14 that is different from the peroxisomal pattern and known to be due to mislocalization to mitochondria (Fig. 5c, ΔPEX19).” Accordingly, the legend of Figure 5 ...

[3] = molecular target: T1, non-farnesylated human PEX19 C-terminal domain (residues 161-299) (human, UniProt P40855 161-299); test: MST; fluorescein-PEX11B peptide (200 nM stock) constant, unlabelled PEX19 CTD serially diluted from 612 uM to 18 nM; 20 mM potassium phosphate pH 6.5, 50 mM NaCl, 20% methanol, 0.1% Tween; three measurements; settings: both partners purified
T1 construct: Peroxisomal biogenesis factor 19 (PEX19), human, C-terminal domain, residues 161-299 with the native C-terminus and CaaX box; 15N- (or 13C/2H-) labelled for NMR; Expressed from pETM11; also called PEX19 CTD; non-farnesylated PEX19 CTD; source: E. coli BL21 (DE3), purified (Ni-NTA, TEV cleavage, size-exclusion chromatography)
T1 sequence (looked up): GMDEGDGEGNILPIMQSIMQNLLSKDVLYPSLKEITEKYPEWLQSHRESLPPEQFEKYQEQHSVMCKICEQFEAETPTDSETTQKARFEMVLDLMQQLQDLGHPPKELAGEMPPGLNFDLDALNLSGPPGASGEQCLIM

[4] = molecular target: T2, farnesylated human PEX19 C-terminal domain (residues 161-299) (human, UniProt P40855 161-299, farnesyl group on Cys296 (CaaX box)); test: as above; settings: both partners purified
T2 construct: Peroxisomal biogenesis factor 19 (PEX19), human, C-terminal domain, residues 161-299, farnesylated at Cys296; Virtually complete farnesylation by SDS-PAGE and NMR; Isotope-labelled for NMR; also called farnesylated PEX19 CTD; source: E. coli BL21 (DE3), purified; farnesylated in vitro with S. cerevisiae farnesyl transferase, then Ni-NTA and Superdex 75
T2 sequence (looked up): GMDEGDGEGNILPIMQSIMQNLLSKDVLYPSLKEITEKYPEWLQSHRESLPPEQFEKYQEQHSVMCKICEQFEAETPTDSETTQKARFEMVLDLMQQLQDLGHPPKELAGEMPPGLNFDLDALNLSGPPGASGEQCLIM

[5] = molecular target: T3, non-farnesylated human PEX19 C-terminal domain (residues 161-299) (human, UniProt P40855 161-299); test: FP
T3 chain: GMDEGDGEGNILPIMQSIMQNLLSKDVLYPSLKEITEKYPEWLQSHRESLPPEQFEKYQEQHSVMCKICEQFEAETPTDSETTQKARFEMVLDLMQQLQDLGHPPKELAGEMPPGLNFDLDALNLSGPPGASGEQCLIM

[6] = molecular target: T4, farnesylated human PEX19 C-terminal domain (residues 161-299) (human, UniProt P40855 161-299, farnesyl group on Cys296 (CaaX box)); test: FP; farnesylated PEX19
T4 chain: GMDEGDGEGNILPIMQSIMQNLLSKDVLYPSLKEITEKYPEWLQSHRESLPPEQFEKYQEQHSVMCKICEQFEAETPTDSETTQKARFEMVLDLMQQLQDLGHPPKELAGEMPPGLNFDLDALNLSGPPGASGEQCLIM

B1: wild type PEX19: full-length wild type human PEX19 expressed in fibroblasts (protein, UniProt P40855 1-299, looked up)
chain: MAAAEEGCSVGAEADRELEELLESALDDFDKAKPSPAPPSTTTAPDASGPQKRSPGDTAKDALFASQEKFFQELFDSELASQATAEFEKAMKELAEEEPHLVEQFQKLSEAAGRVGSDMTSQQEFTSCLKETLSGLAKNATDLQNSSMSEEELTKAMEGLGMDEGDGEGNILPIMQSIMQNLLSKDVLYPSLKEITEKYPEWLQSHRESLPPEQFEKYQEQHSVMCKICEQFEAETPTDSETTQKARFEMVLDLMQQLQDLGHPPKELAGEMPPGLNFDLDALNLSGPPGASGEQCLIM
modifications: full-length
notes: full-length wild type human PEX19 expressed in fibroblasts
cells showing restored peroxisomal protein transport (functional complementation) [1]: 60% | cells with rescue of peroxisome biogenesis [2]: ~50%

Kd [3]: 29.8 ± 1.6 µM | Kd [4]: 6.1 ± 0.4 µM
B2: N-terminally fluorescein-labelled PEX11B peptide (residues 186-200 of human PEX11B) (peptide)
peptide: fluorescein-LALKLRLQVLLLARV
notes: PEX11B, human, residues 186-200; also called PEX11-derived peptide; source: bought: Peptide Specialty Laboratories GmbH, Heidelberg

B3: PEX19/C296A: human PEX19 with a mutation of the farnesylation site (Sacksteder et al) (protein, UniProt P40855 2-296, looked up, variant C296A)
Peroxisomal biogenesis factor …: AAAEEGCSVGAEADRELEELLESALDDFDKAKPSPAPPSTTTAPDASGPQKRSPGDTAKDALFASQEKFFQELFDSELASQATAEFEKAMKELAEEEPHLVEQFQKLSEAAGRVGSDMTSQQEFTSCLKETLSGLAKNATDLQNSSMSEEELTKAMEGLGMDEGDGEGNILPIMQSIMQNLLSKDVLYPSLKEITEKYPEWLQSHRESLPPEQFEKYQEQHSVMCKICEQFEAETPTDSETTQKARFEMVLDLMQQLQDLGHPPKELAGEMPPGLNFDLDALNLSGPPGASGEQA
functional complementation, % of the activity of wild-type PEX19 [2]: ~80%

Kd [5]: 262 µM | Kd [6]: 36 µM
Molecule: {FITC}-AAKAGMNRVFLQRLL [FITC-labelled ALDP peptide (62-AAKAGMNRVFLQRLL-76)]
